Data from patent publication US20230295316A1 (FRED HUTCHINSON CANCER CENTER, published 2023).
Like-named read-outs stand apart in the source and are kept apart here.

How the values were obtained:
[1] = target: T1, human interleukin-3 (IL-3) receptor alpha-chain (CD123), on cells (human, UniProt P26951 19-378); assay: flow cytometry (APC-A), unmodified mAb + secondary antibody, RS4;11 cells overexpressing human CD123 [CONT.]
T1 construct: whole, on cells; also called human CD123
Text: FIG. 4. Parental CD123-negative human RS4;11 ALL cells and RS4;11 cells engineered to overexpress human CD123 were used for flow cytometric phenotyping of a series of anti-CD123 mAbs (11F11, 5G4, 10C4, 1H8) that were either left unmodified or were reacted with 5, 10, or 15 equivalents of B10. A secondary mAb-only control is also shown.

[2] = target: T2, Hs_CD123_6His-Avi (CD123 ECD-His-Avi fusion protein) (human, UniProt P26951 19-303); assay: SPR (Biacore T-100), univalent affinity; antibody captured on the CM4 chip, human CD123 ECD as analyte
T2 construct: The signal peptide is marked only by bold type, so its limits cannot be read here and were not guessed; also called His-Avi tagged peptide encompassing the ECD of human CD123
T2 sequence: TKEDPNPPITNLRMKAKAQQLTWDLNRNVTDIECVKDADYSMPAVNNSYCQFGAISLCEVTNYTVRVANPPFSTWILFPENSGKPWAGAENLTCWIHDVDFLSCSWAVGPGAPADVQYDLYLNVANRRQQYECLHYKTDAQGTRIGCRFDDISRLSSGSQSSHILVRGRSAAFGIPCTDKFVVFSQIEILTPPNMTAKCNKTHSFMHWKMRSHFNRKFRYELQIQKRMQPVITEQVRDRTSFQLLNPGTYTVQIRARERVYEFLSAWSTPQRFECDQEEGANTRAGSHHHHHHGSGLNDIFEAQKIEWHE
Experimental: FIGS. 13A-13B. Surface plasmon resonance (Biacore T-100) analyses were performed to rigorously/precisely determine univalent binding affinities of recombinant chimeric and humanized versions of the anti-human CD123 monoclonal antibody 10C4, using (FIG. 13A) human IgG1 and (FIG. 13B) human IgG4 frameworks. For these experiments, a peptide encoding the complete extracellular portion of human CD123 was used, and the antibodies were captured on the biosensor chip (CM4) via a Fc gamma-specific goat anti-human IgG and amine coupling.

[3] = target: T2, Hs_CD123_6His-Avi (CD123 ECD-His-Avi …); assay: competition ELISA against biotinylated 10C4 on coated CD123 ECD-His-Avi; percent relative to the 10C4 row of the drawn table
Text: (§1) FIGS. 15A-15B. Enzyme-linked immunosorbent assay (ELISA) with the original mouse 10C4 antibody and peptide encompassing the entire extracellular domain (ECD) of CD123 was used to test competitive binding of 10C4 compared to recombinant (FIG. 15A) human IgG1 versions and (FIG. 15B) human IgG4 versions of chimeric 10C4 and humanized 10C4 monoclonal antibodies. Plates were coated with CD123 ECD-His-Avi fusion protein and bound to biotinylated 10C4 antibody in the presence or absence of increasing amounts of competing unlabeled antibodies, as detected by HRP-Streptavidin.

[4] = target: T2, Hs_CD123_6His-Avi (CD123 ECD-His-Avi …); assay: competition ELISA: plate coated with CD123 ECD-His-Avi, biotinylated 10C4 as competitor, increasing unlabeled antibody, HRP-streptavidin; unit not given, x axis is log(concentration)
Text: as §1

[5] = target: T2, Hs_CD123_6His-Avi (CD123 ECD-His-Avi …); assay: as above; remark: listed apart in the source
Text: as §1

[6] = target: T1, human interleukin-3 (IL-3) receptor …; assay: flow cytometry (APC-A), mAb at 2 µg/mL + labeled secondary antibody; RS4;11 transduced with human CD123, TF-1, KG-1, MOLM-13 cells
Experimental: FIG. 1. Parental human RS4;11 cells (endogenously lacking CD123), RS4;11 cells transduced with human CD123, CD123-expressing human AML cells lines (TF-1, KG-1, MOLM-13), and MOLM-13 cells with CRISPR/Cas9-mediated knockout of the CD123 locus (CD123^KO) were left untreated or treated with murine anti-human CD123 mAbs (10C4, 5G6, 11F11, 1H8; used at 2 µg/mL) or a commercial anti-CD123 mAbs (7G3, used at 2 µg/mL) and a labeled secondary antibody before flow cytometric analysis.

[7] = target: T1, human interleukin-3 (IL-3) receptor …; assay: flow cytometry (PE-A), recombinant human IgG1 mAb + labeled secondary antibody, parental MOLM-13 cells against MOLM-13 CD123KO
[8] = target: T1, human interleukin-3 (IL-3) receptor …; assay: flow cytometry (PE-A), recombinant human IgG4 mAb + labeled secondary antibody, parental MOLM-13 cells against MOLM-13 CD123KO
Text: FIGS. 20A-20B. MOLM-13 cells with CRISPR/Cas9-mediated knockout of the CD123 locus (MOLM-13^CD123KO), parental MOLM-13 cells (endogenously expressing CD123) (FIG. 20A), ML-1 cells with CRISPR/Cas9-mediated knockout of the CD123 locus (ML-1^CD123KO), and ML-1^CD123KO cells in which human CD123 was re-expressed via lentivirus-mediated gene expression (FIG. 20B) were left untreated or treated with recombinant human anti-human CD123 mAbs (clones 1B5, 1D9, 1E3, 1F2, and 1G5; all human IgG4 frameworks) and a labeled secondary antibody before flow cytometric analysis.

[9] = target: T1, human interleukin-3 (IL-3) receptor …; assay: flow cytometry (APC-A), 30 min at 4 °C; bound fusion protein detected with APC-anti-hFc (tubes 1-5) or through Y-DOTA-biotin and APC-SA (tubes 6-8); RS4;11 cells expressing human CD123
Experimental: FIG. 24. Flow cytometry-based binding assay of monomeric anti-CD123 BsAb derived from 10C4 binding sequences. 0.4×10⁶ CD123-negative parental RS4;11 cells (RSA) or RSA cells engineered to express human CD123 (RS4-CD123) were incubated with or without CD123 bispecific fusion protein from purification (FP) or crude supernatant (load), with or without Y-DOTA-biotin. After incubating for 30 min at 4° C. cells were washed twice and assayed by flow cytometry with fluorophore-labeled anti-human Fc receptor secondary Ab (tubes 1-5) to detect bound bispecific fusion protein, or fluorophore labeled […] secondary Ab (tubes 6-8) to detect functional capacity of bispecific fusion protein to bind both CD123+ target cells and the radioligand, Y-DOTA-biotin.

B1: 123-1H8 (murine anti-CD123 antibody, IgG1 isotype, Kappa Light Chain) (antibody, V domains shown)
VH: EVKLVESEGGLVQPGSSMKLSCTASGFTFSDYYMAWVRQVPEKGLEWVANIDDEGSSTYYLDSLKSRFIISRDNAKNILYLQMTSLKSEDTATYYCARGTTQTSFFVHWGQGTLVTVSA
VL: DIVLTQSPASLAVSLGQRATISCRASQSVSSSSYSFMHWYQKKPRQPPKLLIKYASTLEAGVPARFSGSGSGTDFTLNIHPVEEEDTATYYCQHSWEIPYTFGGGTKLEIK
notes: murine IgG1, kappa
B1: binds [1].

B2: Chi-10C4, recombinant chimeric 10C4, human IgG4 framework (antibody)
heavy: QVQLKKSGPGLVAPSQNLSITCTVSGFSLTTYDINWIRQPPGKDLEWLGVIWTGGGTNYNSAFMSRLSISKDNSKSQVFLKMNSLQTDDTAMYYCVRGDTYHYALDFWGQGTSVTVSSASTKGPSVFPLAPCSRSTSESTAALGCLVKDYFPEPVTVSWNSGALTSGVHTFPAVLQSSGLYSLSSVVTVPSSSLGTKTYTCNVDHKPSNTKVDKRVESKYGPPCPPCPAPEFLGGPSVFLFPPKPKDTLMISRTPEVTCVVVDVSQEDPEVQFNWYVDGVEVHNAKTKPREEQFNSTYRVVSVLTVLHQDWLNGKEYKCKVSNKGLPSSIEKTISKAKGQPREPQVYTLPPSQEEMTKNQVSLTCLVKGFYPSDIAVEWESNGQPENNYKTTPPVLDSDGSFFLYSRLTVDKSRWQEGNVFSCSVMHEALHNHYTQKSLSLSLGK
light: DIVMSQSPSSLAVSAGEKVTMSCKSSQSLLSSGTRKNYLAWYQQKPGQSPKLLIYWASTRESGVPDRFTGSGSGTDFTLTISSVQAEDLAVYYCKQSYILFTFGSGTKLEIKRTVAAPSVFIFPPSDEQLKSGTASVVCLLNNFYPREAKVQWKVDNALQSGNSQESVTEQDSKDSTYSLSSTLTLSKADYEKHKVYACEVTHQGLSSPVTKSFNRGEC
notes: Signal peptide left out as for the IgG1 form
Work on B2 yielded a Kd [2] of 1.39 nM, a koff [2] of 0.00011 s⁻¹ and a kon [2] of 79100 M⁻¹ s⁻¹. The Immunoreactivity [3] was 116% and the “Calculated concentration at 1/2 OD” value [4] was 1.21.

B3: Chi-10C4, recombinant chimeric 10C4, human IgG1 framework (antibody)
heavy: not shown
light: DIVMSQSPSSLAVSAGEKVTMSCKSSQSLLSSGTRKNYLAWYQQKPGQSPKLLIYWASTRESGVPDRFTGSGSGTDFTLTISSVQAEDLAVYYCKQSYILFTFGSGTKLEIKRTVAAPSVFIFPPSDEQLKSGTASVVCLLNNFYPREAKVQWKVDNALQSGNSQESVTEQDSKDSTYSLSSTLTLSKADYEKHKVYACEVTHQGLSSPVTKSFNRGEC
B3 gave a Kd [2] of 0.572 nM, a koff [2] of 5.24e-05 s⁻¹ and a kon [2] of 91600 M⁻¹ s⁻¹. The Immunoreactivity [3] was 100% and the “Calculated concentration at 1/2 OD” value [5] was 1.12.

B4: 123-5G4 (murine anti-CD123 antibody, IgG2a isotype, Kappa Light Chain) (antibody, V domains shown)
VH: DVQLQESGPGLVKPSQSLSLTCTVTGYSITSDYVWNWIRQFPGNKLEWMAYISYSGTTSYNPSLSSRISITRDTSSNQFFLQLNSVTSEDTATYYCARGLDYWGQGTSVTVSS
VL: QIVLTQSPAIMSVSLGERVTMTCTASSSVTSSYFHWYQQKPGSSPKLWIYSTSNLASGVPARFSGSGSGTSYSLTISSMEAEDAATYYCHQYHRSPRTFGGGTKLEIK
notes: murine IgG2a, kappa
B4: binds [1].

B5: 123-11F11 (murine anti-CD123 antibody, IgG1 isotype, Kappa Light Chain) (antibody, V domains shown)
VH: EVTLVESGGGLEQPGGSLSLSCAASGFTFTDYYMSWVRQPPGKALEWLALIRNKANGYTTEYSASVKGRFTISRDNSQSILYLQMNALRAEDSATYYCARQVRNYYGYEEDALDYWGQGTSVTVSS
VL: DIVLTQSPASLAVSLGQRATISCRASESLDFYGNSFMHWYQQKSGQPPKLLISRASNLESGIPPRFSGSGSRTDFTLTIDPVEADDVATYYCQQSYEDPYTFGGGTKLEIK
notes: murine IgG1, kappa
B5: binds [6].

B6: 123-ATX1F2, fully human recombinant antibody, human IgG1 framework (antibody)
heavy: not shown
light: DIQMTQSPSSLSASVGDRVTITCRASQGIRNDLGWYQQRPGKAPKRLIYAASSLQSGVPSRFSGSGSGTEFTLAISSLQPEDFATYSCLQHNSYPWTFGQGTKVEIKRTVAAPSVFIFPPSDEQLKSGTASVVCLLNNFYPREAKVQWKVDNALQSGNSQESVTEQDSKDSTYSLSSTLTLSKADYEKHKVYACEVTHQGLSSPVTKSFNRGEC
notes: also called 1F2 (human IgG1)
B6: binds [7].

B7: 123-ATX1F2, fully human recombinant antibody, human IgG4 framework (antibody)
heavy: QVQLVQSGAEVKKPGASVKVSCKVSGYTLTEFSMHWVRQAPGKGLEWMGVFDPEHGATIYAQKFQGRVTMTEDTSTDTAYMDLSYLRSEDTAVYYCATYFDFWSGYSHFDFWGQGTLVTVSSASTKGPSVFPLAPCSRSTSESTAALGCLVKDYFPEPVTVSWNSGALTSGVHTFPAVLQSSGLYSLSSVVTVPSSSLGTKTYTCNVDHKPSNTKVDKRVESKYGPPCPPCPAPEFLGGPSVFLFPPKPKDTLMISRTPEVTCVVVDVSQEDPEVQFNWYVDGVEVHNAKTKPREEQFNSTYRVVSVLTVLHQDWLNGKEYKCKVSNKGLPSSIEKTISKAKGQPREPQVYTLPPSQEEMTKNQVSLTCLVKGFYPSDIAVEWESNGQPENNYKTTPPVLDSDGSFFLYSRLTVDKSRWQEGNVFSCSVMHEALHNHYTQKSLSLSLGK
light: DIQMTQSPSSLSASVGDRVTITCRASQGIRNDLGWYQQRPGKAPKRLIYAASSLQSGVPSRFSGSGSGTEFTLAISSLQPEDFATYSCLQHNSYPWTFGQGTKVEIKRTVAAPSVFIFPPSDEQLKSGTASVVCLLNNFYPREAKVQWKVDNALQSGNSQESVTEQDSKDSTYSLSSTLTLSKADYEKHKVYACEVTHQGLSSPVTKSFNRGEC
notes: also called 1F2 (human IgG4)
B7: binds [8].

B8: 10C4-Fc-C825 monomeric construct (monomeric anti-CD123 x anti-Y-DOTA bispecific antibody) (bispecific antibody, human IgG1)
chain: DIVMSQSPSSLAVSAGEKVTMSCKSSQSLLSSGTRKNYLAWYQQKPGQSPKLLIYWASTRESGVPDRFTGSGSGTDFTLTISSVQAEDLAVYYCKQSYILFTFGSGTKLEIKGGGSGGGGSGGGGSGGGGSSQVQLKESGPGLVAPSQNLSITCTVSGFSLTTYDINWIRQPPGKGLEWLGVIWTGGGTNYNSAFMSRLSISKDNSKSQVFLKMNSLQTDDTAMYYCVRGDTYHYALDFWGQGTSVTVSSLEPKSSDKTHTSPPSPAPELLGGPSVFLFPPKPKDTLMISRTPEVTCVVVDVSHEDPEVKFNWYVDGVEVHNAKTKPREEQYNSTYRVVSVLTVLHQDWLNGKEYKCKVSNKALPAPIEKTISKAKGQPREPQVYTLPPSRDELTKNQVSLTCRVKGFYPSDIAVEWESNGQPENNYKTTPPVLDSDGSFHLESKLTVDKSRWQQGNVFSCSVMHEGLHNHYTQKSLSLSPGKVDGASSHVNVSSPSVQDIHVKLQESGPGLVQPSQSLSLTCTVSGFSLTDYGVHWVRQSPGKGLEWLGVIWSGGGTAYNTALISRLNIYRDNSKNQVFLEMNSLQAEDTAMYYCARRGSYPYNYFDAWGCGTTVTVSSGGGGSGGGGSGGGGSQAVVIQESALTTPPGETVTLTCGSSTGAVTASNYANWVQEKPDHCFTGLIGGHNNRPPGVPARFSGSLIGDKAALTIAGTQTEDEAIYFCALWYSDHWVIGGGTRLTVLG
notes: Single chain: 10C4 VL, linker 1, 10C4 VH, hinge and human IgG1 Fc (monomerising substitutions), linker 2, C825 VH, linker 3, C825 VL; also called monomeric 10C4 BsAb; monomeric anti-CD123 BsAb
B8: binds [9].

B9: 123-10C4 (murine anti-CD123 antibody, IgG2b isotype, Kappa Light Chain) (antibody, V domains shown)
VH: QVQLKESGPGLVAPSQNLSITCTVSGFSLTTYDINWIRQPPGKGLEWLGVIWTGGGTNYNSAFMSRLSISKDNSKSQVFLKMNSLQTDDTAMYYCVRGDTYHYALDFWGQGTSVTVSS
VL: DIVMSQSPSSLAVSAGEKVTMSCKSSQSLLSSGTRKNYLAWYQQKPGQSPKLLIYWASTRESGVPDRFTGSGSGTDFTLTISSVQAEDLAVYYCKQSYILFTFGSGTKLEIK
notes: also called parent murine 10C4; murine anti-human CD123 monoclonal antibody 10C4
Binder B9 has a Kd [2] of 0.401 nM, a koff [2] of 0.000102 s⁻¹ and a kon [2] of 254000 M⁻¹ s⁻¹. For the same binder, the “Calculated concentration at 1/2 OD” value [5] was 1.12 and the “Calculated concentration at 1/2 OD” value [4] was 1.04.
